Reference: patent publication US20240325557A1 (INNATE PHARMA, published 2024)

T1: huNectin4-C1C2-V5 (C1C2 construct, lacking the Ig-like V domain) (human, UniProt Q96NY8 148-510)
T1 construct: Expressed on CHO cells; also called Hu-Nectin4 IgC1C2-V5; Nectin4-C1C2-V5 sorted cells
T1 sequence: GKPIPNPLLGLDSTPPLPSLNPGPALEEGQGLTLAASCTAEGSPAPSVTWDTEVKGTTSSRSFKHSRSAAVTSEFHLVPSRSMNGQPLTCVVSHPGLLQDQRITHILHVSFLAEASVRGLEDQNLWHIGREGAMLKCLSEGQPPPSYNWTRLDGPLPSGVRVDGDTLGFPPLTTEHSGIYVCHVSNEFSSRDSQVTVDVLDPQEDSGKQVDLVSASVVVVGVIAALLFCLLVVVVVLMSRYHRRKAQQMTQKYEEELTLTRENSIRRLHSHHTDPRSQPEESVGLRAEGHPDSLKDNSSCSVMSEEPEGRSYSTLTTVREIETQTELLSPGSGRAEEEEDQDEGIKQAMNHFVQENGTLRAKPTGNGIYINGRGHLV

T2: human PVR on CHO cells (human, UniProt P15151 28-417)
T2 construct: also called PVR (Nectin-5)
T2 sequence: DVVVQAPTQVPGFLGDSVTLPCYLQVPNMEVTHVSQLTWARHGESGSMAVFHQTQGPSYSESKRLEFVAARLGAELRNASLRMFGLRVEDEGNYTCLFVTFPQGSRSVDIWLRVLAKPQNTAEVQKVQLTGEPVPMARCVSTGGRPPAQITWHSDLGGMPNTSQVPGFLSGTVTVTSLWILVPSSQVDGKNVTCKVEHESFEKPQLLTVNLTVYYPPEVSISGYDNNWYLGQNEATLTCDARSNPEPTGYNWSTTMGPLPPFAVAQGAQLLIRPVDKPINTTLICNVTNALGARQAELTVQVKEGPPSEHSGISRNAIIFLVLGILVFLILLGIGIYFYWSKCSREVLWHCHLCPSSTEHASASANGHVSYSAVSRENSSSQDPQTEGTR

T3: wild-type human Nectin-4 on the CHO huNectin4 Cl.3C8 cell line (human, UniProt Q96NY8 32-510)
T3 construct: also called whole Nectin-4 protein; huNectin4 CI.3C8
T3 sequence: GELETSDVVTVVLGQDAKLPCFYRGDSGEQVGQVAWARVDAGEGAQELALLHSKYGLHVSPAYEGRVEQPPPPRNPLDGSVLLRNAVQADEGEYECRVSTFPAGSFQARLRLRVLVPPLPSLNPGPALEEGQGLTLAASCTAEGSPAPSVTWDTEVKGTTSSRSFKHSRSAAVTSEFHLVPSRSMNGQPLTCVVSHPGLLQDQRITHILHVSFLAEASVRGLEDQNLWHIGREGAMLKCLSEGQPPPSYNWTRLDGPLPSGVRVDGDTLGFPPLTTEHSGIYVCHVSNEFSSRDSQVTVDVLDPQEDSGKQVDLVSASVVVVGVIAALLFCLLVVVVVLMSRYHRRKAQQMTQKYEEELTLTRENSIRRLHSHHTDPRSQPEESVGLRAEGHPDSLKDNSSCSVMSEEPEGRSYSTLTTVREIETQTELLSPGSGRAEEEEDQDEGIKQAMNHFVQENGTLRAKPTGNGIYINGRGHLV

T4: human Nectin 2 on CHO cells (human, UniProt Q92692 32-538)
T4 sequence: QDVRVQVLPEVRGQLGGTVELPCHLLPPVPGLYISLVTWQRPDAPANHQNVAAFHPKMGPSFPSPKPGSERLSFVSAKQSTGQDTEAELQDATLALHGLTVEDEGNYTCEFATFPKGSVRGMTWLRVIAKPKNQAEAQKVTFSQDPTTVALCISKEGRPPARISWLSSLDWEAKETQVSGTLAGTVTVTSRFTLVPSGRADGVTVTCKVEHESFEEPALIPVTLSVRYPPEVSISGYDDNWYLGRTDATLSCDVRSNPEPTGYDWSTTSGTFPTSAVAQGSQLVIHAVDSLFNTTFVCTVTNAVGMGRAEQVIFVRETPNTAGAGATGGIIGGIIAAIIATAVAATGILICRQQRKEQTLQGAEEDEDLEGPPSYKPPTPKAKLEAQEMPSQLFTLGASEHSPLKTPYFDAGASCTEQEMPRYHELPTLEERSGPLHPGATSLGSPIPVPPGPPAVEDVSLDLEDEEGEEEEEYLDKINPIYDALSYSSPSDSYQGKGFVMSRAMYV

T5: human Nectin-4 Mutant 3 (human, UniProt Q96NY8 32-510)
T5 construct: Expressed on transfected HEK-293T cells; also called A76S/Q77R/E78A/S91N
T5 chain: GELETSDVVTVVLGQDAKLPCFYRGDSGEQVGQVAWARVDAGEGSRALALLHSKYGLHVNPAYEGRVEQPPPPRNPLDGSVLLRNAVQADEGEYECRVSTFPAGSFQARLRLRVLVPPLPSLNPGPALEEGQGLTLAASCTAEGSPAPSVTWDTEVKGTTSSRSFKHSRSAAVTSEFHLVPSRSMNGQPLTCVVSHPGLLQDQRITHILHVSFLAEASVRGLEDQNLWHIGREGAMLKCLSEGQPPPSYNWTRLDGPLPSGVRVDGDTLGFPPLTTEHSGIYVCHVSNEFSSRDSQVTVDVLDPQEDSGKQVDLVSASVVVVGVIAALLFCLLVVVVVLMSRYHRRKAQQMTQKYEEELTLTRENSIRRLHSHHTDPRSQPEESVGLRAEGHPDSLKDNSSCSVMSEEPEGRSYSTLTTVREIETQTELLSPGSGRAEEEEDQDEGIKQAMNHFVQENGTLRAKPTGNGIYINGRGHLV

T6: human Nectin 1 on CHO cells (human, UniProt Q15223 31-517)
T6 sequence: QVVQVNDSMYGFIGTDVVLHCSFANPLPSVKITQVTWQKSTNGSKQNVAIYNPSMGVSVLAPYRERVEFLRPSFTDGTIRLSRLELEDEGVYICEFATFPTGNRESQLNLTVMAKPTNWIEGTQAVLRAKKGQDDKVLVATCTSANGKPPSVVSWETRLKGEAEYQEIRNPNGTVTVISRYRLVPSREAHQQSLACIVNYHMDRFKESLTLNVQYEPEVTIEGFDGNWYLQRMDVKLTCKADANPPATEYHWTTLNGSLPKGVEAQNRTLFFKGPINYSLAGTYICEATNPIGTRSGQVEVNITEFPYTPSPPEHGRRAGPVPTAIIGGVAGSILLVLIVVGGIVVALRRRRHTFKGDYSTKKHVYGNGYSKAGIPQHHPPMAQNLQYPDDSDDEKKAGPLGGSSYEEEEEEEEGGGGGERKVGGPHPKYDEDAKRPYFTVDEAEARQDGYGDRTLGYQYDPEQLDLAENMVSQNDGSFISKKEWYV

T7: monomeric huNectin4-his-BirA protein (human, UniProt Q96NY8 32-349)
T7 construct: also called Human Nectin4-His-BirA; huNectin4-BirA
T7 sequence: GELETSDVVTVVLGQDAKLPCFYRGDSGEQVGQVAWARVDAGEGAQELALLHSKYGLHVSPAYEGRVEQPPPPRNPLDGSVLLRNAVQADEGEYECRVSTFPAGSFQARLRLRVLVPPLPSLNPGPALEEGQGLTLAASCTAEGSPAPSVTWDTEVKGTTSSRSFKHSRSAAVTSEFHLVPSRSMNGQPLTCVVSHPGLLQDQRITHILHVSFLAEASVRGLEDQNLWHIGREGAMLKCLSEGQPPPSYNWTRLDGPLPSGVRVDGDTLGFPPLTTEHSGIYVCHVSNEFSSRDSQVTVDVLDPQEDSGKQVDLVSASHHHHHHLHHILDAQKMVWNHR

T8: human Nectin-4 Mutant 1 (human, UniProt Q96NY8 32-510)
T8 construct: Expressed on transfected HEK-293T cells; also called S58P/G59D/Q61A/N106D/P107A
T8 chain: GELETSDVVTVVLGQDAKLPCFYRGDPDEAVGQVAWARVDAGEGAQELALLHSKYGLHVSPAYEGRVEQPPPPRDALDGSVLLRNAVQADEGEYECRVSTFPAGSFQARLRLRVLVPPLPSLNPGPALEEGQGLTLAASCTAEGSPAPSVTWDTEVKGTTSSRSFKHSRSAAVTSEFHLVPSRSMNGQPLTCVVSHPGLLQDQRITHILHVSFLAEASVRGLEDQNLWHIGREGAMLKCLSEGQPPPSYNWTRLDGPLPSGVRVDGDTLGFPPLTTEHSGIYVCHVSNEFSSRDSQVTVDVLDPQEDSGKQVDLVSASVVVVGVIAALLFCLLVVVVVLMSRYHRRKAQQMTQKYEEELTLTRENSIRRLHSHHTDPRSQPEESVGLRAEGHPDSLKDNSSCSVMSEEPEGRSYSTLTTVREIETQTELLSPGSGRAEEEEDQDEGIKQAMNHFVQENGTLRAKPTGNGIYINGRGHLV


Legend:
[1] = biological target: T1, huNectin4-C1C2-V5 (C1C2 construct, …); test: flow cytometry on Nectin4-C1C2-V5 sorted cells
human PVR on CHO cells = biological target: T2, human PVR on CHO cells; test: flow cytometry on CHO cells expressing human PVR
Procedure: (§1) Anti-Nectin-4 antibodies were tested by flow cytometry for binding to different CHO cell lines made to express respectively the human Nectin 1, Nectin 2, Nectin 3 and PVR proteins. The expression of each cell lines was controlled and validated with known respectively the anti-human Nectin1, anti-human Nectin2, anti-human Nectin3 and anti-human PVR antibodies. The mature amino acid sequence of the proteins expressed by the cells were as follows:
(§2) Nectin 1, Nectin 2, Nectin 3 and PVR proteins as in Example 12. […] Epitope mapping was carried out by assessing competition for binding to Nectin-4 by SPR as in Example 14.

[2] = biological target: T3, wild-type human Nectin-4 on the CHO …; test: flow cytometry on wild-type human Nectin-4 cell line
[3] = biological target: T4, human Nectin 2 on CHO cells; test: flow cytometry on CHO cells expressing human Nectin 2
Procedure: as §1, §2

human Nectin-4 Mutant 3 = biological target: T5, human Nectin-4 Mutant 3; test: binding to HEK-293T cells transfected with the Nectin-4 mutant
[4] = biological target: T6, human Nectin 1 on CHO cells; test: flow cytometry on CHO cells expressing human Nectin 1
Procedure: as §1, §2

[5] = biological target: T7, monomeric huNectin4-his-BirA protein; test: SPR (Biacore T200), antibody captured on Protein A, monomeric huNectin4-his-BirA injected
Procedure: Antibodies were tested for binding affinity to the wild-type human Nectin-4 protein by SPR (Surface Plasmon Resonance) methods. Measurements were performed on a Biacore T200 apparatus (Biacore GE Healthcare) at 25° C. Sensorgrams were analyzed with Biacore T100 Evaluation software. A CMR Sensor Chip with immobilized Protein A at about 600 RU was used. Anti-Nectin-4 antibodies were captured onto the Protein-A chip (antibodies diluted to 1 μg/ml in HBS-EP+1× buffer and injected over 120s at 40 μL/min). […] The chip was regenerated with NaOh 10 mM 2× for 30s at 40 μl/min. The sensorgram sets were fitted using the 1:1 kinetic binding model or two state reaction model, as a function of the profile of the curves.

[6] = biological target: T1, huNectin4-C1C2-V5 (C1C2 construct, …); test: flow cytometry on huNectin4-C1C2-V5 CHO cells
Procedure: The characterization of the binding of the antibodies on Nectin-4 domains was performed by flow cytometry using cells made to express the wild-type human Nectin-4 protein and cells made to express a modified Nectin-4 having the Ig-like C₂ type 1 and the Ig-like C₂ type 2 domains and lacking the Ig-like V domain (the C1C2 construct). The latter protein additionally bears a V5 tag for flow cytometry cell sorting, and cells were used as Nectin4-C1C2-V5 sorted cells.

human Nectin-4 Mutant 1 = biological target: T8, human Nectin-4 Mutant 1; test: binding to HEK-293T cells transfected with the Nectin-4 mutant

Binder	binding result [1]	binding result (human PVR on CHO cells)	binding result [2]	binding result [3]	binding result (human Nectin-4 Mutant 3)	binding result [4]	Kd [5] [nM]	koff [5] [s⁻¹]	kon [5] [M⁻¹ s⁻¹]	binding result [6]	binding result (human Nectin-4 Mutant 1)
antibody 6C11B (antibody, human IgG1, V domains shown, also called 6CB11; CHG1-M-4N4-6C11B) VH: EVQLQQSGPELVKPGASVKISCKTSGYTFTEYTIHWVKQNHGKSLEWIGRINPKNGDIIHNQNFMGKATLTVDKSSSTAYMELRSLTSEDSAVCYCARSGYGSSYGFAYWGQGTLVTVSA VL: DIVMTQSPTSLVVSLGQRATISCRASQSVTTPRYSYMHWYQQKPGQPPKLLIKYASNLESGVPARFSGSGSGTDFTLNIHPVEEEDTATYYCQHSWEIPYTFGGGTKLEIK	binds	no binding	binds	no binding	no binding	no binding					
antibody N41 (antibody, V domains shown, Comparator anti-Nectin-4 antibody) VH: QVQLKQSGPGLVQPSQSLSITCTVSGFSLTNYGVHWVRQSPGKGLEWLGVIWSGGSTDYNAAFISRLSISKDTSKSQVFFKMNSLQADDTAIYYCARELIHAMDNWGQGTSVTVSS VL: DIQMTQSPASLSVSVGETVTITCRASENIYSNLAWYQQKQGNSPQLLVFAATNLADGVPSRFSGSGSGTQYSLKINSLQSEDFGTYYCQHFWGTPTFGGGTKLEIK							1.5	0.00087	580000	no binding	no binding
